Source: paper PMC10786891, “Massively parallel profiling of RNA-targeting CRISPR-Cas13d”
Positions count from the first letter of the chain named. Numbers in names are those of the source.

T1: EsCas13d, nuclease-dead (Eubacterium siraeum, UniProt B0MS50, R295A;H300A;R849A;H854A)
T1 sequence: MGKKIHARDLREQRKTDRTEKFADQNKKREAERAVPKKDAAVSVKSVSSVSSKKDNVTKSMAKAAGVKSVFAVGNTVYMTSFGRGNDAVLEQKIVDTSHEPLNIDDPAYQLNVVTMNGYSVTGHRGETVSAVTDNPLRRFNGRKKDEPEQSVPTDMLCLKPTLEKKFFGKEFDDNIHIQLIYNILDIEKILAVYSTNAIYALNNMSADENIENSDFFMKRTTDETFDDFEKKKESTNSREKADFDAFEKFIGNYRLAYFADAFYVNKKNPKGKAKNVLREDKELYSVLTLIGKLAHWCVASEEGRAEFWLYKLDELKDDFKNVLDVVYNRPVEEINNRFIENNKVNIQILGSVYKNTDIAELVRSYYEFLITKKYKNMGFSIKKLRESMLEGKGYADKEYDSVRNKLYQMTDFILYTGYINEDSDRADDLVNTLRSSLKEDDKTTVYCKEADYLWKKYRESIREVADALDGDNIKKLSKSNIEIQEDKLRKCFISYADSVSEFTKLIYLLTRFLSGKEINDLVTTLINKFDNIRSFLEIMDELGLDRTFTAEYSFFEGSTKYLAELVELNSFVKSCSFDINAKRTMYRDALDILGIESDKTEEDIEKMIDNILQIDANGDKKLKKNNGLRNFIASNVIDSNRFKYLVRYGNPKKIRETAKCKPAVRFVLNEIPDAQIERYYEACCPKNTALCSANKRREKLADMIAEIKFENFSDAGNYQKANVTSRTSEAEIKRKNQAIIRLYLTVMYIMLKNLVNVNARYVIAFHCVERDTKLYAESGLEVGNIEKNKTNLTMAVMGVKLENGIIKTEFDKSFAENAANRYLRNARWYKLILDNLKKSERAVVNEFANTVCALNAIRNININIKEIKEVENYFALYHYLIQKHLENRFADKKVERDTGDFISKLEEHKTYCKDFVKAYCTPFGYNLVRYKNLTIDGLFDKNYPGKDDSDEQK

B1: target 1 MT 5'PFS AUA 3'PFS CGG (mixed)
RNA 1: CACCCGUGCAAAAAUGCAGGGGUCUAAAACUGAGCGGAUAACCUCUCUAUGG
RNA 2: GGGAAUGGAUCCACAUCUACGAAUUCAUACCAUAGAGAGGUUAUCCGCUCACGGAGAUCGGAAGAGCACACGU
B2: target 1 MT 5'PFS GCU 3'PFS AAU (mixed)
RNA 1: B1 RNA 1
RNA 2: B1 RNA 2 with A27G, U28C, A29U, C52A, G53A, G54U
B3: target 1 MT 5'PFS GCU 3'PFS AAC (mixed)
RNA 1: B1 RNA 1
RNA 2: B1 RNA 2 with A27G, U28C, A29U, C52A, G53A, G54C
B4: target 1 MT 5'PFS GGC 3'PFS CUA (mixed)
RNA 1: B1 RNA 1
RNA 2: B1 RNA 2 with A27G, U28G, A29C, G53U, G54A
B5: target 1 MT 5'PFS UGC 3'PFS CCU (mixed)
RNA 1: B1 RNA 1
RNA 2: B1 RNA 2 with A27U, U28G, A29C, G53C, G54U
B6: target 1 MT 5'PFS GCU 3'PFS UGC (mixed)
RNA 1: B1 RNA 1
RNA 2: B1 RNA 2 with A27G, U28C, A29U, C52U, G54C
B7: target 1 MT 5'PFS GGG 3'PFS CCU (mixed)
RNA 1: B1 RNA 1
RNA 2: B1 RNA 2 with A27G, U28G, A29G, G53C, G54U
B8: target 1 insU 3' of 7,insA 3' of 3 (mixed)
RNA 1: B1 RNA 1
RNA 2: GGGAAUGGAUCCACAUCUACGAAUUCGUACCAUAGAGAGGUUAUCUCGCUACACCGAGAUCGGAAGAGCACACGU
B9: target 1 MT 5'PFS GGC 3'PFS CUG (mixed)
RNA 1: B1 RNA 1
RNA 2: B1 RNA 2 with A27G, U28G, A29C, G53U
B10: target 1 insU 3' of 15,insG 3' of 6 (mixed)
RNA 1: B1 RNA 1
RNA 2: GGGAAUGGAUCCACAUCUACGAAUUCGUACCAUAGAGUAGGUUAUCCGGCUCACCGAGAUCGGAAGAGCACACGU
B11: target 1 MT 5'PFS GCC 3'PFS CAU (mixed)
RNA 1: B1 RNA 1
RNA 2: B1 RNA 2 with A27G, U28C, A29C, G53A, G54U
B12: target 1 MT 5'PFS AGU 3'PFS UUG (mixed)
RNA 1: B1 RNA 1
RNA 2: B1 RNA 2 with U28G, A29U, C52U, G53U
B13: target 1 MT 5'PFS GUC 3'PFS UUU (mixed)
RNA 1: B1 RNA 1
RNA 2: B1 RNA 2 with A27G, A29C, C52U, G53U, G54U
B14: target 1 insC 3' of 16,insA 3' of 4 (mixed)
RNA 1: B1 RNA 1
RNA 2: B10 RNA 2 with G37C, U38G, G49C, C50A
B15: target 1 MT 5'PFS UAU 3'PFS ACU (mixed)
RNA 1: B1 RNA 1
RNA 2: B1 RNA 2 with A27U, U28A, A29U, C52A, G53C, G54U
B16: target 1 MT 5'PFS GGG 3'PFS CCG (mixed)
RNA 1: B1 RNA 1
RNA 2: B1 RNA 2 with A27G, U28G, A29G, G53C
B17: target 1 MT 5'PFS UAG 3'PFS AGA (mixed)
RNA 1: B1 RNA 1
RNA 2: B1 RNA 2 with A27U, U28A, A29G, C52A, G54A
B18: target 1 MT 5'PFS GGG 3'PFS CCC (mixed)
RNA 1: B1 RNA 1
RNA 2: B1 RNA 2 with A27G, U28G, A29G, G53C, G54C
B19: target 1 MT 5'PFS UAG 3'PFS AGU (mixed)
RNA 1: B1 RNA 1
RNA 2: B1 RNA 2 with A27U, U28A, A29G, C52A, G54U
B20: target 1 MT 5'PFS GGA 3'PFS CAU (mixed)
RNA 1: B1 RNA 1
RNA 2: B1 RNA 2 with A27G, U28G, G53A, G54U
B21: target 1 MT 5'PFS GGG 3'PFS ACC (mixed)
RNA 1: B1 RNA 1
RNA 2: B1 RNA 2 with A27G, U28G, A29G, C52A, G53C, G54C
B22: target 1 MT 5'PFS GGC 3'PFS CUC (mixed)
RNA 1: B1 RNA 1
RNA 2: B1 RNA 2 with A27G, U28G, A29C, G53U, G54C
B23: target 1 MT 5'PFS GCC 3'PFS ACG (mixed)
RNA 1: B1 RNA 1
RNA 2: B1 RNA 2 with A27G, U28C, A29C, C52A, G53C
B24: target 1 MT 5'PFS GCC 3'PFS ACA (mixed)
RNA 1: B1 RNA 1
RNA 2: B1 RNA 2 with A27G, U28C, A29C, C52A, G53C, G54A
B25: target 1 A14C,A16G (mixed)
RNA 1: B1 RNA 1
RNA 2: B1 RNA 2 with A27G, A36G, A38C, G53C
B26: target 1 MT 5'PFS CUU 3'PFS AAA (mixed)
RNA 1: B1 RNA 1
RNA 2: B1 RNA 2 with A27C, A29U, C52A, G53A, G54A
B27: target 1 MT 5'PFS GCC 3'PFS ACU (mixed)
RNA 1: B1 RNA 1
RNA 2: B1 RNA 2 with A27G, U28C, A29C, C52A, G53C, G54U
B28: target 1 MT 5'PFS UAU 3'PFS ACA (mixed)
RNA 1: B1 RNA 1
RNA 2: B1 RNA 2 with A27U, U28A, A29U, C52A, G53C, G54A
B29: target 1 MT 5'PFS GGC 3'PFS CUU (mixed)
RNA 1: B1 RNA 1
RNA 2: B1 RNA 2 with A27G, U28G, A29C, G53U, G54U
B30: target 1 A9G,U10G (mixed)
RNA 1: B1 RNA 1
RNA 2: B1 RNA 2 with A27G, U42G, A43G, G53C
B31: target 1 MT 5'PFS UGC 3'PFS CCC (mixed)
RNA 1: B1 RNA 1
RNA 2: B1 RNA 2 with A27U, U28G, A29C, G53C, G54C
B32: target 1 MT 5'PFS CUU 3'PFS UCU (mixed)
RNA 1: B1 RNA 1
RNA 2: B1 RNA 2 with A27C, A29U, C52U, G53C, G54U
B33: target 1 MT 5'PFS GCC 3'PFS CAC (mixed)
RNA 1: B1 RNA 1
RNA 2: B1 RNA 2 with A27G, U28C, A29C, G53A, G54C
B34: target 1 MT 5'PFS UCA 3'PFS UGU (mixed)
RNA 1: B1 RNA 1
RNA 2: B1 RNA 2 with A27U, U28C, C52U, G54U
B35: target 1 MT 5'PFS GCU 3'PFS UGA (mixed)
RNA 1: B1 RNA 1
RNA 2: B1 RNA 2 with A27G, U28C, A29U, C52U, G54A
B36: target 1 MT 5'PFS AUA 3'PFS AGG (mixed)
RNA 1: B1 RNA 1
RNA 2: B1 RNA 2 with C52A
B37: target 1 MT 5'PFS AGC 3'PFS UAG (mixed)
RNA 1: B1 RNA 1
RNA 2: B1 RNA 2 with U28G, A29C, C52U, G53A
B38: target 1 MT 5'PFS UAU 3'PFS ACC (mixed)
RNA 1: B1 RNA 1
RNA 2: B1 RNA 2 with A27U, U28A, A29U, C52A, G53C, G54C
B39: target 1 MT 5'PFS ACC 3'PFS CUC (mixed)
RNA 1: B1 RNA 1
RNA 2: B1 RNA 2 with U28C, A29C, G53U, G54C

Biological target: T1, EsCas13d, nuclease-dead
Assay: crRNA (strand 1, pre-loaded); Mg2+; 40 mM Tris-HCl pH 7.5, 150 mM NaCl, 6 mM MgCl2, 1 mM DTT, 0.1% Tween-20, 0.2 mg/ml BSA; 25 C; 10 min per concentration, then washed
Settings: tags: His6-TwinStrep-SUMO cleaved; N-terminal SNAP kept (SNAP-Surface 488); label: 3' end held by stalled T7 RNA polymerase

Row | Binder | Kd
1 | B1 | 27 ± 6.5 nM
2 | B2 | ~82.5 nM
3 | B3 | ~80 nM
4 | B4 | 15.2 ± 4.25 nM
5 | B5 | 15.5 ± 4.5 nM
6 | B6 | 38 ± 7 nM
7 | B7 | 18.5 ± 7 nM
8 | B8 | 20.4 ± 1.3 nM
9 | B9 | 17.3 ± 4 nM
10 | B10 | 14.9 ± 0.8 nM
11 | B11 | ~12 nM
12 | B12 | 47 ± 17 nM
13 | B13 | 15.1 ± 4.3 nM
14 | B14 | 38 ± 17 nM
15 | B15 | 29 ± 5 nM
16 | B16 | 15.1 ± 3.45 nM
17 | B17 | 30 ± 5.5 nM
18 | B18 | ~50 nM
19 | B19 | 56.5 ± 16 nM
20 | B20 | 50.5 ± 18 nM

Row | Binder | Kd
21 | B21 | 25.5 ± 8.5 nM
22 | B22 | 17.1 ± 7.05 nM
23 | B23 | 13.9 ± 3.7 nM
24 | B24 | ~64 nM
25 | B25 | ~90 nM
26 | B26 | ~70 nM
27 | B27 | 11.2 ± 2.05 nM
28 | B28 | 54 ± 20.5 nM
29 | B29 | 11.3 ± 2.25 nM
30 | B30 | 37 ± 4 nM
31 | B31 | ~23 nM
32 | B32 | 30.5 ± 9 nM
33 | B33 | ~34 nM
34 | B34 | 28.5 ± 5 nM
35 | B35 | 100 ± 40 nM
36 | B36 | ~90 nM
37 | B37 | 17 ± 6.5 nM
38 | B38 | 36 ± 15 nM
39 | B39 | ~12 nM
